# According to patent publication US20200317768A1 (published 2020):
# Numbering of substitutions follows the chain as printed. In names and notes the source's numbering stands.
# B1: M103205H795-SG1012 / M103202L889-SK1 (antibody, human IgG1, kappa)
# heavy: QVTLKESGPVLVKPTETLTLTCTVSGIDLSHDDISWVRQAPGKGLEWVGIISYAGSTYYASWAKGRLTISKDTSKNQVVLTMTNMDPVDTATYYCARGVPAYSHGGDLWGQGTLVTVSSASTKGPSVFPLAPSSKSTSGGTAALGCLVKDYFPEPVTVSWNSGALTSGVHTFPAVLQSSGLYSLSSVVTVPSSSLGTQTYICNVNHKPSNTKVDKKVEPKSCDKTHTCPPCPAPELLNGPSVFLFPPKPKDTLMISRTPEVTCVVVDVSEEDPEVKFNWYVDGVEVHNAKTKPREEQYNSTYRVVSVLTVLHQDWLNGKEYKCKVSNKALPKPIEKTISKAKGQPREPQVYTLPPSREEMTKNQVSLTCLVKGFYPSDIAVEWESNGQPENNYKTTPMVLDSDGSFFLYSKLTVDKSRWQQGNVFSCSVMHEALHAHYTQKSLSLSP
# light: DIVMTQSPATLSLSPGERATLSCTSSQSVYHANWLSWFQQKPGQPPKLLIYWASTLAYGVPSRFSGSGSGTDFTLTISSLQPEDAATYYCAGGYGGGRYAFGQGTKVEIKRTVAAPSVFIFPPSDEQLKSGTASVVCLLNNFYPREAKVQWKVDNALQSGNSQESVTEQDSKDSTYSLSSTLTLSKADYEKHKVYACEVTHQGLSSPVTKSFNRGEC
# notes: the text says N434A was introduced into MY101 (which also has A330K); also called MS1032LO06-SG1012
# B2: M103205H795-SG1033 / M103202L889-SK1 (antibody, human IgG1, kappa)
# heavy: B1 heavy with E270D, M398P
# light: B1 light
# notes: CH with G236N/H268D/A330K/N434A against SG1 (EU numbering); also called MS1032LO06-SG1033
# B3: M103205H795-SG1031 / M103202L889-SK1 (antibody, human IgG1, kappa)
# heavy: B1 heavy with E270D, Q313R, M398P, D415K
# light: B1 light
# notes: CH with G236N/H268D/Q311R/A330K/D413K/N434A against SG1 (EU numbering); also called MS1032LO06-SG1031
# B4: M103205H795-SG1016 / M103202L889-SK1 (antibody, human IgG1, kappa)
# heavy: B1 heavy with Q313R, D401R
# light: B1 light
# notes: the text says Q311R/D399K; also called MS1032LO06-SG1016
# B5: M103205H795-SG1029 / M103202L889-SK1 (antibody, human IgG1, kappa)
# heavy: B1 heavy with E270D, Q297L, Q313R, M398P, D415K
# light: B1 light
# notes: CH with G236N/H268D/Q295L/Q311R/A330K/D413K/N434A against SG1 (EU numbering); also called MS1032LO06-SG1029
# Biological target: T1, cynomolgus monkey FcγRIIIaS extracellular domain, C-terminal His-tag (cynomolgus monkey, UniProt A3RFZ7 21-206 (rhesus entry))
# T1 construct: also called cyno FcγRIIIaS; cynoFcγRIIIaS; not shown: His-tag added to C-terminus
# Assay: SPR (BIACORE); KD of parent SG1 / KD of variant;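 further: relative to parent M103205H795-SG1 carrying the SG1 human heavy chain constant region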
# Procedure: (§1) The kinetic analysis of interactions between these antibodies and FcγR was carried out using BIACORE® T200 or BIACORE® 4000 (GE Healthcare). HBS-EP+ (GE Healthcare) was used as the running buffer, and the measurement temperature was set to 25° C. A chip produced by immobilizing Protein A. Protein A/G or mouse anti-human IgG kappa light chain (BD Biosciences) onto a Series S Sensor Chip CM4 or CM5 (GE Healthcare) by the amine-coupling method was used. […] After the measurement, the antibody captured on the chip was washed off by allowing reaction with 10 mM glycine-HCl, pH1.5 and 25 mM NaOH so that the chip was regenerated and used repeatedly. The sensorgrams obtained as measurement results were analyzed by the 1:1 Langmuir binding model using the BIACORE® Evaluation Software to calculate the binding rate constant ka (L/mol/s) and dissociation rate constant kd (l/s), and the dissociation constant KD (mol/L) was calculated from these values. […] Regarding such interactions, KD values were calculated using the following 1:1 binding model described in BIACORE® T100 Software Handbook BR1006-48 Edition AE.
# T1 sequence (A3RFZ7 21-206): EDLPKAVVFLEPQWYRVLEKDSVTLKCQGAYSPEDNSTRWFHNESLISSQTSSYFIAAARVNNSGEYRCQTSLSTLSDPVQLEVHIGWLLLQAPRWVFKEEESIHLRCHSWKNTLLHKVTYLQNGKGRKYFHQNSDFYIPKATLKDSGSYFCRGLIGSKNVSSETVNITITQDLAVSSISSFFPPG
row,Binder,KD fold (SG1 = 1) [fold]
1,B1,0.13
2,B2,0.06
3,B3,0.06
4,B4,0.12
5,B5,0.05

# Biological target: T2, cynomolgus monkey FcγRIIb extracellular domain, C-terminal His-tag (cynomolgus monkey)
# T2 construct: also called cyno FcγRIIb; cynoFcγRIIb; not shown: His-tag added to C-terminus
# T2 chain: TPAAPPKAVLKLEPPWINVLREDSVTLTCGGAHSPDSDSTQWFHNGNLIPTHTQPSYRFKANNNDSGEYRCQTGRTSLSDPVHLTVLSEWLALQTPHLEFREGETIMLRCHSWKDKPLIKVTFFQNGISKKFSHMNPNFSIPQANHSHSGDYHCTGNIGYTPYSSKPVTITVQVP
# Assay: SPR (BIACORE); KD of parent SG1 / KD of variant;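 further: relative to parent M103205H795-SG1 carrying the SG1 human heavy chain constant region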
# Procedure: as §1
row,Binder,KD fold (SG1 = 1) [fold]
1,B1,7.2
2,B2,3.9
3,B3,3.9
4,B4,6
5,B5,4.9

# Biological target: T3, cynomolgus monkey FcγRIIa2 extracellular domain, C-terminal His-tag (cynomolgus monkey)
# T3 construct: also called cyno FcγRIIa2; cynoFcgRIIa2; not shown: His-tag added to C-terminus
# T3 chain: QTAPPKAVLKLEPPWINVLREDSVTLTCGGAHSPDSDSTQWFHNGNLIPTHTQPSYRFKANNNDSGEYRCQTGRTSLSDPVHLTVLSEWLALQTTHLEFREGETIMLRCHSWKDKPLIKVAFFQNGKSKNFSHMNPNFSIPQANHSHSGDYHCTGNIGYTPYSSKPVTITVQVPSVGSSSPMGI
# Assay: SPR (BIACORE); KD of parent SG1 / KD of variant;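 further: relative to parent M103205H795-SG1 carrying the SG1 human heavy chain constant region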
# Procedure: as §1
row,Binder,KD fold (SG1 = 1) [fold]
1,B1,4.7
2,B2,3
3,B3,3.1
4,B4,4.1
5,B5,3.1

# Biological target: T4, cynomolgus monkey FcγRIIa3 extracellular domain, C-terminal His-tag (cynomolgus monkey)
# T4 construct: also called cyno FcγRIIa3; cynoFcgRIIa3; not shown: His-tag added to C-terminus
# T4 chain: T3 chain with K127I, N130K, H133P, Q142R
# Assay: SPR (BIACORE); KD of parent SG1 / KD of variant;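 further: relative to parent M103205H795-SG1 carrying the SG1 human heavy chain constant region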
# Procedure: as §1
row,Binder,KD fold (SG1 = 1) [fold]
1,B1,3.8
2,B2,2.9
3,B3,3.1
4,B4,3.9
5,B5,2.8

# Biological target: T5, human FcγRIIaR extracellular domain, C-terminal His-tag (human, UniProt P12318 34-217)
# T5 construct: also called human FcγRIIa (type R); FcgRIIaR; not shown: His-tag added to C-terminus
# T5 chain: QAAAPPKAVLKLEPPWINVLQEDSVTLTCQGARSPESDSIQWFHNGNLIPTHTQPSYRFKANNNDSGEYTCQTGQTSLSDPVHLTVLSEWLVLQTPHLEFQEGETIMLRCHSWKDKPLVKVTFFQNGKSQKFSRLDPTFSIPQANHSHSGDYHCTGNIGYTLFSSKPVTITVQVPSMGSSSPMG
# Assay: SPR (BIACORE); KD of parent SG1 / KD of variant
# Procedure: as §1
row,Binder,KD fold (SG1 = 1) [fold]
1,B1,1.4
2,B2,1
3,B3,1.3
4,B4,1.2
5,B5,0.8

# Biological target: T6, human FcγRIIaH extracellular domain, C-terminal His-tag (human, UniProt P12318 34-217)
# T6 construct: also called human FcγRIIa (type H); FcgRIIaH; not shown: His-tag added to C-terminus
# T6 sequence: T5 chain with R134H
# Assay: SPR (BIACORE); KD of parent SG1 / KD of variant
# Procedure: as §1
row,Binder,KD fold (SG1 = 1) [fold]
1,B1,1.8
2,B2,0.7
3,B3,0.7
4,B4,1.5
5,B5,1.1

# Biological target: T7, human FcγRIIIaV extracellular domain, C-terminal His-tag (human, UniProt P08637 17-208)
# T7 construct: also called FcgRIIIaV; not shown: His-tag added to C-terminus
# Assay: SPR (BIACORE); KD of parent SG1 / KD of variant
# Procedure: as §1
# T7 sequence (P08637 17-208 F176V): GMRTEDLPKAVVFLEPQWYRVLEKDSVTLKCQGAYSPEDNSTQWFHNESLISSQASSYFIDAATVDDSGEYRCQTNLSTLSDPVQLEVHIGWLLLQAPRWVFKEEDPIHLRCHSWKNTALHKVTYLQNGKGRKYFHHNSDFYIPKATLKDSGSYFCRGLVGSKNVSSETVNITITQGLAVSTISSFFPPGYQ
row,Binder,KD fold (SG1 = 1) [fold]
1,B1,0.11
2,B2,0.05
3,B3,0.04
4,B4,0.06
5,B5,0.03

# Biological target: T8, cynomolgus monkey FcγRIIa1 extracellular domain, C-terminal His-tag (cynomolgus monkey)
# T8 construct: also called cyno FcγRIIa1; cynoFcgRIIa1; not shown: His-tag added to C-terminus
# T8 chain: T3 chain with T95P, A121T, K127I, S128A, N130K, N135D, Q142R
# Assay: SPR (BIACORE); KD of parent SG1 / KD of variant
# Procedure: as §1
row,Binder,KD fold (SG1 = 1) [fold]
1,B1,4.4
2,B2,2.6
3,B3,2.6
4,B4,3.8
5,B5,3.5

# Biological target: T9, human FcγRIIb extracellular domain, C-terminal His-tag (human, UniProt P31994 43-217)
# T9 construct: also called humanFcgRIIb; not shown: His-tag added to C-terminus
# T9 sequence: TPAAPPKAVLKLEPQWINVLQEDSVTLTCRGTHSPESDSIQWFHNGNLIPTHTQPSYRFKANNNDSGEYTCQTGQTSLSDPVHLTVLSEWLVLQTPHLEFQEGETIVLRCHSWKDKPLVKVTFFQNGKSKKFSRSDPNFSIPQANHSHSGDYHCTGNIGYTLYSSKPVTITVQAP
# Assay: SPR (BIACORE); KD of parent SG1 / KD of variant
# Procedure: as §1
row,Binder,KD fold (SG1 = 1) [fold]
1,B1,9.6
2,B2,3.9
3,B3,3.8
4,B4,8.7
5,B5,5.3

# Biological target: T1, cynomolgus monkey FcγRIIIaS …
# Assay: SPR (BIACORE), antibody captured, FcγR analyte
# Procedure: as §1
row,Binder,Kd [nM]
1,B1,2100
2,B2,4400
3,B3,4400
4,B4,2400
5,B5,5300

# Biological target: T2, cynomolgus monkey FcγRIIb extracellular …
# Assay: SPR (BIACORE), antibody captured, FcγR analyte
# Procedure: as §1
row,Binder,Kd [nM]
1,B1,270
2,B2,500
3,B3,500
4,B4,330
5,B5,400

# Biological target: T3, cynomolgus monkey FcγRIIa2 …
# Assay: SPR (BIACORE), antibody captured, FcγR analyte
# Procedure: as §1
row,Binder,Kd [nM]
1,B1,1000
2,B2,1500
3,B3,1500
4,B4,1100
5,B5,1500

# Biological target: T4, cynomolgus monkey FcγRIIa3 …
# Assay: SPR (BIACORE), antibody captured, FcγR analyte
# Procedure: as §1
row,Binder,Kd [nM]
1,B1,2300
2,B2,3000
3,B3,2800
4,B4,2200
5,B5,3100

# Biological target: T5, human FcγRIIaR extracellular domain, …
# Assay: SPR (BIACORE), antibody captured, FcγR analyte
# Procedure: as §1
row,Binder,Kd [nM]
1,B1,750
2,B2,1000
3,B3,800
4,B4,820
5,B5,1300

# Biological target: T6, human FcγRIIaH extracellular domain, …
# Assay: SPR (BIACORE), antibody captured, FcγR analyte
# Procedure: as §1
row,Binder,Kd [nM]
1,B1,500
2,B2,1200
3,B3,1800
4,B4,500
5,B5,790

# Biological target: T7, human FcγRIIIaV extracellular domain, …
# Assay: SPR (BIACORE), antibody captured, FcγR analyte
# Procedure: as §1
row,Binder,Kd [nM]
1,B1,5800
2,B2,12000
3,B3,15000
4,B4,10000
5,B5,20000

# Biological target: T8, cynomolgus monkey FcγRIIa1 …
# Assay: SPR (BIACORE), antibody captured, FcγR analyte
# Procedure: as §1
row,Binder,Kd [nM]
1,B1,1100
2,B2,1800
3,B3,1800
4,B4,1300
5,B5,1400

# Biological target: T9, human FcγRIIb extracellular domain, …
# Assay: SPR (BIACORE), antibody captured, FcγR analyte
# Procedure: as §1
row,Binder,Kd [nM]
1,B1,490
2,B2,1200
3,B3,1200
4,B4,550
5,B5,900
